{"source": "paper PMC7427792", "about": "“CryoEM structure of the low-complexity domain of hnRNPA2 and its conversion to pathogenic amyloid” (Nature Communications, 2020)", "key": {"[1]": {"molecular_target": "the molecule itself", "test": "crystal structure; hanging-drop vapour diffusion; segment 9.69 mg ml^-1 in water with 31 mM lithium hydroxide; reservoir 0.15 M ammonium acetate, 35% MPD, 0.1 M Bis-Tris pH 5.5"}, "[2]": {"molecular_target": "the molecule itself", "test": "X-ray fibre diffraction; mC-hnRNPA2-LCD hydrogel (~60 mg ml^-1, 4 °C) air-dried between two capillary glass rods; 100 K"}}, "data": [{"protein": "GNYNVF (hexamer segment 286-291 of human hnRNPA2 LCD with the disease variant D290V (multisystem proteinopathy); numbers count on the 341-residue hnRNPA2 (isoform A2); also called mutant segment; disease-causing mutant core segment)", "note": "[hnRNPA2 mutant core segment GNYNVF (286-291, D290V)]", "values": [{"measurement": "binding result", "setting": "[1]", "result": "binds"}]}, {"protein": "mCherry-hnRNPA2-LCD fusion protein (domain or fragment, human, UniProt P22626-2 181-341, looked up, hnRNPA2 C-terminal low-complexity domain (LCD), human, residues 181-341 of the 341-residue protein (161 residues); printed length 341 = isoform A2 of HNRNPA2B1; Only Gly263-Tyr319 is ordered in the fibril core; also called mC-hnRNPA2-LCD; mCh-hnRNPA2-LCD; source: E. coli BL21(DE3), purified (HisTrap HP column, in 2 M guanidine HCl), dialysed and concentrated; not shown: mCherry, N-terminal, kept) MQEVQSSRSGRGGNFGFGDSRGGGGNFGPGPGSNFRGGSDGYGSGRGFGDGYNGYGGGPGGGNFGGSPGYGGGRGGYGGGGPGYGNQGGGYGGGYDNYGGGNYGSGNYNDFGNYNQQPSNYGPMKSGNFGGSRNMGGPYGGGNYGPGGSGGSGGYGGRSRY", "values": [{"measurement": "binding result", "setting": "[2]", "result": "binds"}]}]}
